Data set [1] has as its system HeLa Kyoto. As to the kind of experiment: solubility in G1/S (NP-40 vs SDS abundance) (log2 ratio); higher = more soluble. The conditions noted are these: cell cycle stage: G1/S.
In data set [2] the test system is HeLa Kyoto. The data set can be described thus: solubility change mitosis vs G1/S (difference of NP-40 vs SDS log2 ratios) (log2 ratio difference); higher = more soluble in mitosis.
The subject of data set [3] is HeLa Kyoto. As to the kind of experiment: thermal stability score vs G1/S (z-score of summed log2 fold changes over temperatures); higher = more thermally stable than in G1/S.
[4] abbreviates: cell cycle stage: early G1 (4.5 h after nocodazole release).
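Throughout, for solubility change mitosis vs G1/S (difference of NP-40 vs SDS log2 ratios): synchronized HeLa Kyoto cells (double thymidine block for G1/S, nocodazole release for mitosis), protein amounts in NP-40 versus SDS lysates quantified by mass spectrometry, three biological replicates.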
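Throughout, for solubility in G1/S (NP-40 vs SDS abundance): HeLa Kyoto cells arrested at G1/S by double thymidine block, proteins quantified by TMT10plex mass spectrometry in mild NP-40 versus SDS extracts, three biological replicates.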
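Throughout, for thermal stability score vs G1/S (z-score of summed log2 fold changes over temperatures): synchronized HeLa Kyoto cells, proteins quantified by TMT10plex mass spectrometry, three biological replicates, mitosis taken 0.5 h after nocodazole release, G1/S directly after double thymidine block.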

As to “MASAAVESFVTKQLDLLELERDAEVEERRSWQENISLKELQSRGVCLLKLQVSSQRTGLYGRLLVTFEPRRYGSAAALPSNSFTSGDIVGLYDAANEGSQLATGILTRVTQKSVTVAFDESHDFQLSLDRENSYRLLKLANDVTYRRLKKALIALKKYHSGPASSLIEVLFGRSAPSPASEIHPLTFFNTCLDTSQKEAVLFALSQKELAIIHGPPGTGKTTTVVEIILQAVKQGLKVLCCAPSNIAVDNLVERLALCKQRILRLGHPARLLESIQQHSLDAVLARSDSAQIVADIRKDIDQVFVKNKKTQDKREKSNFRNEIKLLRKELKEREEAAMLESLTSANVVLATNTGASADGPLKLLPESYFDVVVIDECAQALEASCWIPLLKARKCILAGDHKQLPPTTVSHKAALAGLSLSLMERLAEEYGARVVRTLTVQYRMHQAIMRWASDTMYLGQLTAHSSVARHLLRDLPGVAATEETGVPLLLVDTAGCGLFELEEEDEQSKGNPGEVRLVSLHIQALVDAGVPARDIAVVSPYNLQVDLLRQSLVHRHPELEIKSVDGFQGREKEAVILSFVRSNRKGEVGFLAEDRRINVAVTRARRHVAVICDSRTVNNHAFLKTLVEYFTQHGEVRTAFEYLDDIVPENYSHENSQGSSHAATKPQGPATSTRTGSQRQEGGQEAAAPARQGRKKPAGKSLASEAPSQPSLNGGSPEGVESQDGVDHFRAMIVEFMASKKMQLEFPPSLNSHDRLRVHQIAEEHGLRHDSSGEGKRRFITVSKRAPRPRAALGPPAGTGGPAPLQPVPPTPAQTEQPPREQRGPDQPDLRTLHLERLQRVRSAQGQPASKEQQASGQQKLPEKKKKKAKGHPATDLPTEEDFEALVSAAVKADNTCGFAKCTAGVTTLGQFCQLCSRRYCLSHHLPEIHGCGERARAHARQRISREGVLYAGSGTKNGSLDPAKRAQLQRRLDKKLSELSNQRTSRRKERGT [IGHMBP2]”, the “solubility in G1/S (log2)” value in data set [1] was -0.73. Also, the “solubility change mitosis (log2)” value in data set [2] worked out at 0.296. Besides, the thermal stability score in data set [3] (setting [4]) worked out at 0.859; in data set [3] (cell cycle stage: mitosis) it was 0.156.

As for “MASADKNGGSVSSVSSSRLQSRKPPNLSITIPPPEKETQAPGEQDSMLPEGFQNRRLKKSQPRTWAAHTTACPPSFLPKRKNPAYLKSVSLQEPRSRWQESSEKRPGFRRQASLSQSIRKGAAQWFGVSGDWEGQRQQWQRRSLHHCSMRYGRLKASCQRDLELPSQEAPSFQGTESPKPCKMPKIVDPLARGRAFRHPEEMDRPHAPHPPLTPGVLSLTSFTSVRSGYSHLPRRKRMSVAHMSLQAAAALLKGRSVLDATGQRCRVVKRSFAFPSFLEEDVVDGADTFDSSFFSKEEMSSMPDDVFESPPLSASYFRGIPHSASPVSPDGVQIPLKEYGRAPVPGPRRGKRIASKVKHFAFDRKKRHYGLGVVGNWLNRSYRRSISSTVQRQLESFDSHRPYFTYWLTFVHVIITLLVICTYGIAPVGFAQHVTTQLVLRNKGVYESVKYIQQENFWVGPSSIDLIHLGAKFSPCIRKDGQIEQLVLRERDLERDSGCCVQNDHSGCIQTQRKDCSETLATFVKWQDDTGPPMDKSDLGQKRTSGAVCHQDPRTCEEPASSGAHIWPDDITKWPICTEQARSNHTGFLHMDCEIKGRPCCIGTKGSCEITTREYCEFMHGYFHEEATLCSQVHCLDKVCGLLPFLNPEVPDQFYRLWLSLFLHAGVVHCLVSVVFQMTILRDLEKLAGWHRIAIIFILSGITGNLASAIFLPYRAEVGPAGSQFGLLACLFVELFQSWPLLERPWKAFLNLSAIVLFLFICGLLPWIDNIAHIFGFLSGLLLAFAFLPYITFGTSDKYRKRALILVSLLAFAGLFAALVLWLYIYPINWPWIEHLTCFPFTSRFCEKYELDQVLH [RHBDF2]”, the “solubility in G1/S (log2)” value in data set [1] was -0.177. The “solubility change mitosis (log2)” value in data set [2] was found to be 0.063. Further, the thermal stability score was -2.24 in data set [3] (setting [4]) and -2.01 in data set [3] (cell cycle stage: mitosis).

With “MASPRASRWPPPLLLLLLPLLLLPPAAPGTRDPPPSPARRALSLAPLAGAGLELQLERRPEREPPPTPPRERRGPATPGPSYRAPEPGAATQRGPSGRAPRGGSADAAWKHWPESNTEAHVENITFYQNQEDFSTVSSKEGVMVQTSGKSHAASDAPENLTLLAETADARGRSGSSSRTNFTILPVGYSLEIATALTSQSGNLASESLHLPSSSSEFDERIAAFQTKSGTASEMGTERAMGLSEEWTVHSQEATTSAWSPSFLPALEMGELTTPSRKRNSSGPDLSWLHFYRTAASSPLLDLSSSSESTEKLNNSTGLQSSSVSQTKTMHVATVFTDGGPRTLRSLTVSLGPVSKTEGFPKDSRIATTSSSVLLSPSAVESRRNSRVTGNPGDEEFIEPSTENEFGLTSLRWQNDSPTFGEHQLASSSEVQNGSPMSQTETVSRSVAPMRGGEITAHWLLTNSTTSADVTGSSASYPEGVNASVLTQFSDSTVQSGGSHTALGDRSYSESSSTSSSESLNSSAPRGERSIAGISYGQVRGTAIEQRTSSDHTDHTYLSSTFTKGERALLSITDNSSSSDIVESSTSYIKISNSSHSEYSSFFHAQTERSNISSYDGEYAQPSTESPVLHTSNLPSYTPTINMPNTSVVLDTDAEFVSDSSSSSSSSSSSSSSGPPLPLPSVSQSHHLFSSILPSTRASVHLLKSTSDASTPWSSSPSPLPVSLTTSTSAPLSVSQTTLPQSSSTPVLPRARETPVTSFQTSTMTSFMTMLHSSQTADLKSQSTPHQEKVITESKSPSLVSLPTESTKAVTTNSPLPPSLTESSTEQTLPATSTNLAQMSPTFTTTILKTSQPLMTTPGTLSSTASLVTGPIAVQTTAGKQLSLTHPEILVPQISTEGGISTERNRVIVDATTGLIPLTSVPTSAKEMTTKLGVTAEYSPASRSLGTSPSPQTTVVSTAEDLAPKSATFAVQSSTQSPTTVSSSASVNSCAVNPCLHNGECVADNTSRGYHCRCPPSWQGDDCSVDVNECLSNPCPSTAMCNNTQGSFICKCPVGYQLEKGICNLVRTFVTEFKLKRTFLNTTVEKHSDLQEVENEITKTLNMCFSALPSYIRSTVHASRESNAVVISLQTTFSLASNVTLFDLADRMQKCVNSCKSSAEVCQLLGSQRRIFRAGSLCKRKSPECDKDTSICTDLDGVALCQCKSGYFQFNKMDHSCRACEDGYRLENETCMSCPFGLGGLNCGNPYQLITVVIAAAGGGLLLILGIALIVTCCRKNKNDISKLIFKSGDFQMSPYAEYPKNPRSQEWGREAIEMHENGSTKNLLQMTDVYYSPTSVRNPELERNGLYPAYTGLPGSRHSCIFPGQYNPSFISDESRRRDYF [HEG1]”, the “solubility in G1/S (log2)” value in data set [1] was -0.231. Also, the “solubility change mitosis (log2)” value in data set [2] was -0.0254. Also, the thermal stability score in data set [3] (setting [4]) is -0.763; in data set [3] (cell cycle stage: mitosis), -1.15.

Take “MATPDVSVHMEEVVVVTTPDTAVDGSGVEGVKTVLVTTNLAPHGGDLTEDNMETENAAAAAAAAFTASSQLKEAVLVKMAEEGENLEAEIVYPITCGDSRANLIWRKFVCPGINVKCVQYDEHVISPKEFVHLAGKSTLKDWKRAIRMNGIMLRKIMDSGELDFYQHDKVCSNTCRSTKIDLSGARVSLSSPTSAEYIPLTPAAADVNGSPATITIETCEDPGDWTAAIGDDTFTFWRGLKDAGLLDEVIQEFHQELVETMRGLQQRVQDPPLQLRDAVLLNNIVQNFGMLDLVKKVLASHKCQMDRSREQYARDLAALEQQCDEHRRRAKELKHKSQHLSNVLMTLTPVSLPPPVKRPRLARATSGPAAMASQVLTQSAQLALGPGVPVPQLTSVPLGKVVSTLPSTVLGKGSLQAPPASSPASPLLGGYTVLASSGSTYPSTVEIHPDASSLTVLSTAAVQDGSTVFKVVSPLQLLTLPGLGPTLQNVAQASPGSSTIVTVPAGAAPGPEEHTATIEVAAMAEDHERK [GMEB2]”: the “solubility in G1/S (log2)” value in data set [1] is -0.0692. The “solubility change mitosis (log2)” value in data set [2] came to 0.0606. The thermal stability score in data set [3] (setting [4]) was determined as 0.359; in data set [3] (cell cycle stage: mitosis) it was 0.761.

Source of the values: the supplement of paper PMC5998384.
